{"source": "patent US8747397B2", "about": "“Cryotreatment pellet” (CPSI Holdings LLC, priority 2009, dated 2014)", "origin": "cited, not measured here", "tested_on": "prostate cancer cell"}
{"molecule": "TNF-Related Apoptosis-Inducing Ligand (protein, UniProt P50591 1-281, looked up, cytotoxic agent, apoptosis-inducing ligand applied in combination with freezing) Tumor necrosis factor ligand …: MAMMEVQGGPSLGQTCVLIVIFTVLLQSLCVAVTYVYFTNELKQMQDKYSKSGIACFLKEDDSYWDPNDEESMNSPCWQVKWQLRQLVRKMILRTSEETISTVQEKQQNISPLVRERGPQRVAAHITGTRGRSNTLSSPNSKNEKALGRKINSWESSRSGHSFLSNLHLRNGELVIHEKGFYYIYSQTYFRFQEEIKENTKNDKQMVQYIYKYTSYPDPILLMKSARNSCWSKDAEYGLYSIYQGGIFELKENDRIFVSVTNEHLIDMDHEASFFGAFLVG", "values": [{"measurement": "cell death", "setting": "sub-lethal dose applied in vitro in combination with freezing", "value": "complete prostate cancer cell death occurs"}, {"measurement": "critical death temperature", "setting": "sub-lethal dose in combination with freezing, reduced from −40° C. (freezing alone)", "value": "−10", "unit": "°C"}]}
